Values of other authors in paper PMC9594772.
pKd: −log10 of the molar value.

Target: Dll4 ECD (Rattus norvegicus) (UniProt D3ZHH1)
Sequence (D3ZHH1 28-530): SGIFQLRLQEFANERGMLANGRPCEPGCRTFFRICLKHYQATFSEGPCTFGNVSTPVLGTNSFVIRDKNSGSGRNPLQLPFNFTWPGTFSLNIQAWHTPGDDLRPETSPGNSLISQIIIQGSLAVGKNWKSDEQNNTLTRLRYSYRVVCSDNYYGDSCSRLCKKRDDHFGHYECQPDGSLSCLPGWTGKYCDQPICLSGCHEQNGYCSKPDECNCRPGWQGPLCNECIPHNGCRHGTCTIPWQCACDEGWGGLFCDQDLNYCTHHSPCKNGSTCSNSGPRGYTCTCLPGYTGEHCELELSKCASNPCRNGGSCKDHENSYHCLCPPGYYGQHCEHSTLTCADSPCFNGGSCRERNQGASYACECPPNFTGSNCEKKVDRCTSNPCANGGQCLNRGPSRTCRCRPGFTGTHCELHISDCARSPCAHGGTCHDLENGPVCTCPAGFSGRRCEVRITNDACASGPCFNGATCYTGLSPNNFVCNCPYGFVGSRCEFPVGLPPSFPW

- pKd: 4.90
Substance: Notch1 (from UniProt P46531)
